Measurements from FireProtDB (doi:10.1021/bi060525p).

Conditions: Homo sapiens, pH 7.4, Thermal, Phosphate 10 mM

Sequence of Hemoglobin subunit alpha wild type, P69905 (P69905 whole entry): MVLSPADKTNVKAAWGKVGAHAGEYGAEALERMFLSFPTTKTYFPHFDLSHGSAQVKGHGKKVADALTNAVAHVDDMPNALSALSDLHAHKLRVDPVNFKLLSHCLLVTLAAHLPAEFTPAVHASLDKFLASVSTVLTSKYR

## Hemoglobin subunit alpha wild type, P69905
Absorbance
  Tm: 71 °C
CD
  Tm: 73 °C
DSC
  Tm: 75 °C
Optical Density
  Tm: 58.7 °C
